In the NTF2 design screens of Basanta et al. (2020):

Assay: protease stability score; higher = more stable; yeast display proteolysis, trypsin and chymotrypsin;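 also: relative to predicted unfolded state with 0 unfolded-like and 1 meaning tenfold more protease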

Row | Sequence | protease stability score
1 | DEEHKHLREILRLMIEWLRTGDWEKIERNADPTTKMDYGEFKTHGREEYYRALMILIRHLGVDHITLHDFTFIDGKIYLDLIIHVNGQHERVTLEMHFVDGVIKRHHVREK | 0.566
2 | DEEHKIIRDFADEFWHWHLTGNFEEIAKNMDPNVRYEIRIGDKVILHIGMEDVERYLREEIHKFKNLTEDLESKHVVGNKLHLDARLNWNGKTVDIHIEIVVVNGRFKTVTIHIR | 1.36
3 | DEEHKLAEHYLRIWIHALITGDFHKILHLMDPNVRNEVGDKEVHGREEWEKFLKRVKNVVIEHVELDHLLVVDGRVHIRVTLHMSYGDKTEDHDIHVLMHKVDGRWYIKSIHVK | 2.43
4 | DEEHKLQEDFLKALIRSILTGDWEFWKRLLDPHVRMNINGVYVHGRDEAANILIKDLERRGMEIKTITIEDRRHYDGVLEVKLRIQTTIDGQEHETSLEFHVKKYDGRWIIEHITVR | 2.19
5 | DEEHKTSYKALEQLIRVLRTGDERLMSELADPHVRMDFDGRRHHGRESMKREFLELGIDHVHLDRWNLIGNKVLSDGHMRFDGRSMRVEIIAYKVDGRWVLEEVRFE | 0.03
6 | DEEHNHFERLTRWFEHVWRTGNEEFFRELADPNARMRINGQEYVGREELVRTLHEWLKILGAKHHRKKDEEIQGEKVILIGEVDIDGRTLRHHVHFRIINGRLHSLEVEVK | 1.3
7 | DEEHNLSEEAMRHFFETVRTGDEELIYRLLDPNARVQINGKEHHGREDVWEFLWRNYMRADHVEVKVHHVEVQGEKVIIDLRLHVTINGKDLEIRLVLIIHKYNGRWHITELRIL | 0.555
8 | DEEHQHSLARTLATALRTGDPEKMKDLADKDVKVVVGDKHIKGRKDAKKWAKDWRDRYDHAQVDDVNVQGENVRIVMNVEVDGHNVVVVMTAIIDGDQVKNVKVTARNEEQEKKMKK | 0.252
9 | DEEHQSLRHIAEILLESWETGDFERVWKFADPHTRVDFNGREKHGMHHVHEMFHILGIDHIELRHMEVINGRINSDGHVEVNGQRHRMHLTIFVFDGRLTEVRFDYE | 2
10 | DEEHRDFKHLIKIFDDSVETGDEETFHKLLDPDVRIRVGDWQLVGREEARRVFQQIRIIIHSNRIHDVKVINGKIHADTHVDFRIEVGDKTVRERSRTIIYLDKVNGVWTIHSIEFK | 1.08
11 | DEEHRDLEHFMEIYEDALRTGDEKIIKFLLDPHVRFKQGNKQEHGWEAVYRYLHRFDVVKDVRFRIRSLEIQGDFLIVHYEVRYRGEINGQEHHVTIEYVIIVKKIDGKWLVHEVSIL | 1.62
12 | DEEHRDSEEMTRKFLHNFITGNEHILEDLLDPHVRTDVDGREFIGWELAFKAFREFLERLGFDHIRHRDMKLHVVGNKVTSVITNNIQVGDKEHELRIILINRKIDGKWSVTEVRIHVK | 1.25
13 | DEEHREAREAVEDDLRELITGNWDMLRRNLDPRMRLNIDGQDIHGRESVHKRWVELMEELGIDHLELHRVDVIDGRIHTDGHERVDGKHIKVLIVAVKINGRWIIKRLHVH | 0.675
14 | DEEHREMRDVLDELLEAFHTGDEHSLNRYADPHARHHVNGKEYHGRELMVKIWMDLGIDHVHLEEIHLQGEKLHMDTRVTVNGRTIKVTIIILKINGRWKLTHVEIK | 0.958
15 | DEEHRHAEEILKDLQKALITGDEHNMMNLLDPHVRVDFDGVEIIGRELWVELFRTLKKELGITRFDIHLHTHDMKIFDGRVTLDTRLHLHYNGRTEERRVIIYVTKVNGRWHIESMEIK | 1.82
16 | DEEHRHAHWLLNVLTKAMITGDESLMEHLLDPNARLIQGEFELVGRERIIDWFHHIRTHEVRIHVEHFDVVNGKAIIFGHVTVDGTVNGQRREFRFDQTYFSSKIDGKWVIESLEME | 1.3
17 | DEEHRKLKKFVRESMEDHRTGDEDRRNELLDPNVRIEIGDKTFHGREDDKKWLEEFGVDHVEIRIRHIDIIGNKAIIDSELRIFVNGRILEFDTIIYAEKYDGRWVHHSVQVR | 0.077
18 | DEEHRLSHEIEKHLEDDLRTGDFHHFIKQVDPNTRVRYGDKRLHGMHAVIWTLEHLGIDVFHLTDSHTFENRVVVHVRLEQGDFTMSVEVHATKVNGRWIVTKINFHHS | 0.023
19 | DEEHRSSHHAVEVQFRVLHTGDFHDLRRQLDPDVKFHIDGVNDHGREVFEERVRELGIKHLLIEDHHVEIQGEWAHLRMKGLMEINGKEIKLHIRYLLLKVNGRWSAHTVSIHLE | 1.36
20 | DEEHRVIHNAVRILLEAIRTGDEETLRRLLDPHTRIEIGDKELHGWKDAIKFERDVWEILGIDHSEIRIKHVRIIGDKIEVEGEIINYVNGKEIVLDTNLIMRKIDGRWVFKSRKVN | 1.23
21 | DEEHTDITRATEHLIDSMETGDEDRLQELFDPNTLMRINGRRHHGREDMREFIRELVEKVKNLKIEIDHIDVVGNKVRLEVTLRVNGQEISTHIIIVKVDGRWIVKRMHIN | 0.667
22 | DEEIEEARHVFEEVIHNIQTGDEDAYETLMDPNVRLQVGEKKFHGRREVKEWLHEIRVRRYEIRPKDSDVIGEKVIVHGRVRIDGHYNGRDIDLEVQVHRIIVKINGRWFVHEVRIG | 1.28
23 | DEEIEMLTKLAELFIRLWLTGNEDILESMADPRVRLEINGREHHGRDIVRKIFEHDRHHMRLESIQLHDRRVYNGRADLHGTQYGEINGKRETYTVRLILVIINGRIETVKVIVE | 1.14
24 | DEEKDEVREIAERIFHNLRTGDEEKLKHLIDPHVRFEYGDKEHHGWEEMVHFLREWRIHHIHIRDIKVYDGVAHVNGEVDGKFNGRRFRSDTWVIIVTINGRVKQISIQIN | 1.33
25 | DEEKDHAQMFLELWRHFLETGDEEFLERLADPHVKSLINGVEHHGREIMYKYLIKFLRRLGVDRVHTEVRIHHMHVINGVAFFDGTLHLNFNGQTYSRRVEIIVYKVNGRWHLHEFRIE | 1.74

Row | Sequence | protease stability score
26 | DEEKDIIERMSKMITRSWETGNEDWLSELADPDVKFHINGRDHHGMEEMARLWLELVLKLGVKHQTIEHLSIQGDKVHIHSRSDFNGRHMKLEIRVLLVNGKIRSVTVHLHVD | 0.633
27 | DEEKDIMERIADLMLELSETGDEHTYKRMADPNVRLRFNGVDIHGMDNISKYLKEFFERIDHVEFEIKDFRSFDGRYNNRGLLILNVGDKRIIIDITIRVEVVNGRVKERQVDID | 0.749
28 | DEEKDIMNEWWKRIFNVFHTGDEREHDKMLDPNARFDIGDKTLHGMDDFRRFLHRADHISHFTEHHVEVQGEKLVWEGTYDGEFNGVERRFHTHEQNIIINGKVKRVFFQIR | 0.834
29 | DEEKDLTEKIAHEIVHNYMTGDFDRFIELADPNVRFIIGDKIYHGREQLLTVLEHWRQEWRLSHVRLDEFEIQGDKVILHTTMNIKYGDKRIDVETEIKIIIINGRIRDWTIDRR | 1.42
30 | DEEKEDAYRNAELWIKSINTGDEDVLTDLLDPHARIDIGDKKLHGMESFTKLYRDLGFRIKDFHLKDIRIYGEKIEIHGIIHFEQGDKEHNEDTTIILLKVNGKWIIKRLRVN | 1.5
31 | DEEKEDFHHAVELVLRVIKTGDEHTARELMDPRVRIDIDGQDFHGWQHIVHFVKHWRIERYSLKYVEYIDGRIHNTVLLDITVDGQRRNLEVYIIFLKYNGRWILTEVILR | 1.84
32 | DEEKEDIERYNRLYFNASTTGDEDTLKRLADPHVRIHVGDKDQVGMEHLSTRLLELRIEVEFDHRHIEVQGDKVTVDGTLTLHIEIGEKRYERRVDLILHWHKIDGRWLIEQVDML | 1.27
33 | DEEKEDNKHFLKIHREDLHTGNEDSLKRLADPNARIHIGDKDYHGWEFWLTLSRELGVDHMHLIIDHVDLQGEKARIEGELEFTVGDKKHRIKTRLILEKIDGVWVYKSVTIE | 1.04
34 | DEEKEEADEHIRLLIDVMKTGDEDSMRRLIDPNVRIRVDGKEDHGMEKLVHLLRHARYREVRIEHVEHQGEKVIIHYKAWVEIDGQENHKKWHFIVTKVDGKWTLKEVSVH | 2.3
35 | DEEKEEAEHFFHFFFHLLITGDEEQWFRLADPNMRVRVNGVLLHGREIWERLVQEIRVNHMHLDRMEIHVFNGRMDVYIIGHVRRIIGDKEETTTVHIRIVMFKVNGRWVIHAVEEDYR | 1.81
36 | DEEKEEARRVLEIFIRSTRTGNFKENTEQMDPNVRIDINGVELHGREDAIRLAVEARIHRVEIEHVTTIGDKVEVHGHVDGTFNGQRTRTRLYVVIEKVDGRWLISEYRYH | 1.29
37 | DEEKEEEDLVLEILIHMMRTGDEELLDELLDPNARQIVGDKEFIGRELSHWFATFFKNVKVEIKHFRVINGRIHMHVHIQIGDKRHDMRITARKVNGKWVLEESHIR | 1.62
38 | DEEKEEFKIASKLFIDSLRTGNEELLSFLFDPHAKSDVNGKNIHGMEILAETMSRLFERYKGMQIRVDEIRFFDGQIHLHGRVNFNGREHTVIVIINKVNGQWRIQDLQID | 1.11
39 | DEEKEEHEKMIERWLRALETGDEHLLRELIDPNVRLDINGRRTHGREDVLRLFVDLGIDHHDIHDVKIIDGRIDMDTRINVNGREIKIRVIARKFDGRWIVESFRVE | 1.89
40 | DEEKEEIELAIRLTEKMLKTGDEELWRENADPNARFVTENHDDHGREVIVKWVHEMRRKFKNMRLEIEDVRTFNGRLEIHLRLNVNGRDLKINIIVEKVNGRWFLREIEIQ | 1.74
41 | DEEKEEIRQFEETFVEAMKTGDEDVIRHLLDPHVRVDINGQTFHGREIVIEMVSRFPNVQVHIDDLDVQGNWAHSDVQLHQGDKYIRLHIDVTKIDGKWRITFLKFK | 1.45
42 | DEEKEELEKATEEWVHFMRTGDEDSLIKNLDPNVKNIFNGKEEIGREDLSHFIKHMGAKVVRIEDIKTQGDKVIIDTRIEVGDKHFEVTLYFEKINGRWFLHSVEIR | 0.512
43 | DEEKEETEKLAKDILHNIHTGNEEEFLKLADPNTRIVQGDFRTHGRESMHFWMREVRKLFKNVRIHWRLKDVRSFEGHAITHIEVEVSFDGRTDLIRMEIHVIVVNGKIEELIINTR | 0.695
44 | DEEKEEWEELFKEFEHSIHTGDFRVLAKQMDPHVRIIYGEKRVHGREDAHKLMRDTLEKLGVDHMHVEDNHLQGDFIHLQIRRHVNGRTMTVHFLIWKYNGRWYMHSIKIE | 1.43
45 | DEEKEEYNRKAKEFWQRWLTGDEKRLRELADPNVRLDIDGVELVGREEFVHAVHEFLRHIRFKDMKVHRTDNIDGKNESDFEVTGDVNGQDMKSRTHVLILLVNGKIKEVEHRWK | 0.222
46 | DEEKEEYRRAIEDWIKFFITGDFDLLKTLADPNARSEIGNYEFHGMEHISRRIVDIIERFKNMRYSVHSIDFQGDYVILHSYIIYGDKHLHLIVITYKFNGRWRFHSVRVE | 1.26
47 | DEEKEFAEEMTRIWIEFWKTGDEDDLSHMLDPNVRLIIIIGDKHIHMHGRERAIKEIRRLLHEWRIDDEHNEHIRYFNGKVDVRSRIHVTINGREHDHELVVRIFVVDGRVKSVSIEYR | 2.52
48 | DEEKEFAEIYLRRLEELYNTGDEEIEHDLLDPHVRINIGNKHIHGREQYIEHWRKLLIILGIERFTIHVRIKDVRIQGEFAHLDGRLELRVGDKRRTLDVELIILKVNGRWVNKHIHFL | 0.888
49 | DEEKEHAHRFYEEWVKAWRTGDFKHMLDLIDPNTKIVINGQEYHGMEMWSHIVEHLERLHGYRINHERIHHIRNIDGKVDSDVHVRGRYNGRDIDSRMHIHLDVVDGRIKSLEFRSK | 1.55
50 | DEEKEHAKEMLELHLRLWLTGNEDKLHRLADPHVRMTIDGKEFIGREEMIKAIREHLKRLGVDHVRIHWTRLHVVDGQIDLHTHIRLHVDGRTIEIESEIISVVFNGVMKSIEWKFK | 1.38
